The results in this text go back to PMC10185811, “FAT10 and NUB1L cooperate to activate the 26S proteasome” (Life Science Alliance, 2023).

Experiment [1] deals with T1, NUB1L (NEDD8 ultimate buster 1 long), tagless (human, UniProt Q9Y5A7-1 1-615).
T1 construct: NUB1L, human, the long splice variant of NUB1 with one UBL and three UBA domains, printed mass 69.1 kD; The long splice variant is meant; which UniProt isoform id holds it was not checked; By my reading of the printed primers the insert begins at Ala2 (AQKKYLQ) and runs to the stop codon; also called NUB1 long; full-length WT NUB1L; source: recombinant, cloned into the pSUMO vector; expression, …
T1 sequence (looked up): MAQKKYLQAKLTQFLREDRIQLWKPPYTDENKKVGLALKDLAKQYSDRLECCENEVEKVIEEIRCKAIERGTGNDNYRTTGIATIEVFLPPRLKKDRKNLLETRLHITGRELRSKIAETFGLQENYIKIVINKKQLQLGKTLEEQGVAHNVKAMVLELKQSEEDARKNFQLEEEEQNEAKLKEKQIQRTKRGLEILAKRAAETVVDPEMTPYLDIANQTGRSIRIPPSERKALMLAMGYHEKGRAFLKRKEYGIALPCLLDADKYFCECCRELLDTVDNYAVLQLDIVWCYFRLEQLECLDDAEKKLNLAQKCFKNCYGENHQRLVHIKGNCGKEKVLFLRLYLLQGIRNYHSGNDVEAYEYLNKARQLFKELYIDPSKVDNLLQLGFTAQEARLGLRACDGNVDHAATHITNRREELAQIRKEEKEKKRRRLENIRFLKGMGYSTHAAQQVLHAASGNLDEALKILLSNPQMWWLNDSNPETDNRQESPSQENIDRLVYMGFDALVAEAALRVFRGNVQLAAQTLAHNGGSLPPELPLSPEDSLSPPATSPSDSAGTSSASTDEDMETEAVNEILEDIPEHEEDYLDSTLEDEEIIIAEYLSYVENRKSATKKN
The experiment is described as follows: BLI; Octet; His6-RPN1 loaded on the nickel sensor; NUB1L, GST-FAT10, NUB1L with GST-FAT10 or NUB1L with GST in solution; Octet buffer (PBS, 0.1% Triton X-100, 1x ROTIBlock); 1:1 binding model. The settings on record: both partners purified.

The target in a further experiment is T2, His6-RPN10 (human, UniProt P55036 1-377).
T2 construct: RPN10 (hS5α), subunit of the 19S regulator of the 26S proteasome, human; also called His–RPN10; hS5α; source: recombinant; expression and purification described before (Rani et al, 2012)
T2 sequence (P55036 whole entry): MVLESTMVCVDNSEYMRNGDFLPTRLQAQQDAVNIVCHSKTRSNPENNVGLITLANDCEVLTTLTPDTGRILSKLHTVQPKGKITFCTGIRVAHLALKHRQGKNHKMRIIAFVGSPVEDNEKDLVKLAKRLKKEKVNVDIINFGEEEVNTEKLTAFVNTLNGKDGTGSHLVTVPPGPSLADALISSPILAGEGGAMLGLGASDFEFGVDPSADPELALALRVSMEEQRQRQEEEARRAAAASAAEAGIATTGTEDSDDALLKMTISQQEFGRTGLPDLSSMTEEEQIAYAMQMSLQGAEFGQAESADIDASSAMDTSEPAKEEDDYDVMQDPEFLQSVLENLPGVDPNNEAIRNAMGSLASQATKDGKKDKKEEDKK
The experiment is described as follows: BLI; Octet; His6-RPN10 on the sensor; GST-FAT10 alone or together with NUB1LΔUBL in solution; Octet buffer; 1:1 binding model. Particulars: both partners purified.

B1: GST-FAT10 (natural protein, human, UniProt O15205 1-165, looked up)
chain: MAPNASCLCVHVRSEEWDLMTFDANPYDSVKKIKEHVRSKTKVPVQDQVLLLGSKILKPRRSLSSYGIDKEKTIHLTLKVVKPSDEELPLFLVESGDEAKRHLLQVRRSSSVAQVKAMIETKTGIIPETQIVTCNGKRLEDGKMMADYGIRKGNLLFLACYCIGG
notes: FAT10 (HLA-F adjacent transcript 10), human; source: recombinant; expression and purification previously described (Schmidtke et al, 2006)
Take B1: the binding result (in experiment [1]; with His6-RPN10) was “binds” throughout.
